From publication PMC11855083

Target: T1, His6-NfxB (Pseudomonas aeruginosa PAO1?) (UniProt P32265)
T1 sequence: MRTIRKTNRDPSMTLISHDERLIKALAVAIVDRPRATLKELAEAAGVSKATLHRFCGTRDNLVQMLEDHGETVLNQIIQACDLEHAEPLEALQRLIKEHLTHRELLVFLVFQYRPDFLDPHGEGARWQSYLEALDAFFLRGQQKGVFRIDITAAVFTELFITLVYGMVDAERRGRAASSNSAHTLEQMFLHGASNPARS
Assay: EMSA
Conditions: pH 7.0, room temperature, 10 min ([…]

| Sequence | binding |
| --- | --- |
| TCCAAGCTGCCTTCGGCCAAAGAGGCCTGAGGCATTCAACGACAGCGCCTGCCATGGTGGCGGGCGCTTGCATAGCGTAGTGGCGCGAGCCACACGGGAGGAAAGATGGCTGTTGATATGTTCATCAAGATCGGC (double strand) [hcp1 promoter (phcp1)] | binds |
| ACGCAAATCAGCCATGACACACCCGACCGTTGATTGAAAACGGATCGAATGGTACTTTTTCGAGCTAATTGAGTCAATATTGTCTCAAATGATCTTTTGACAGCTAATTCCTTTGGACGCGAGGCCAGTTTTCTGCACAATGCGCACAATCAGAAAAACCAACCGGGACCCATCGATGACCCTGAT (double strand) [mexC promoter] | binds |
| ATCTTTCCTCCCGTGTGGCTCGCGCCACTACGCTATGCAAGCGCCCGCCACCATGGCAGGCGCTGTCGTTGAATGCCTCAGGCCTCTTTGGCCGAAGGCAGCTTGGA (double strand) [hcp1T (hcp1 promoter with potential NfxB motif truncated)] | no binding |
